Numbering of substitutions follows the chain as printed. Numbers in names are those of the source.

In experiment [1] the target is T1, CD3 on the surface of primary T cells (human, UniProt P07766 23-207).
T1 construct: whole, on cells; CD3 is a multimeric complex (ε, γ, δ, ζ chains) with the TCR; In the reporter assays CD3 stood on Jurkat cells; also called CD3ε
In words: flow cytometry on isolated primary human T cells. How it is done: (§1) Binding of exemplary multispecific constructs containing an antigen-binding domain directed against B7H3 were assessed for binding to B7H3 positive A375 tumor cells or primary T-cells. The constructs were generated containing antigen-binding domain(s) that were either sdAbs or a FABs, and that were positioned either only N-terminal to the Fc or both N-terminal to the Fc and C-terminal to the anti-CD3 binding domain (see FIGS. 3A and 3C and Table E1.1). Among the various formats of constructs tested included: sdAb-Fc-dsFV-sdAb (cx3072, cx5952) sdAb-Fc-FV (cx6079), sdAb-Fc-dsFV (cs6080, cx6081), MAB-FV (cx5067) and MAB-dsFV (cx6083, cx6084), where the FV represents the anti-CD3 binding domain composed of VH and VL domain pairs and “ds” notes disulfide stabilized via an engineered interdomain disulfide bond.
(§2) Binding was assessed as described above via flow cytometry using a fluorophore-conjugated anti-human Fc secondary antibody. cx3072 bound to A375 cells with high affinity (FIG. 6A) but not to isolated T-cells (FIG. 6B). […] The B7H3-targeting sdAb containing constructs (cx5952, cx6079, cx6080, and cx6081) bound to B7H3 positive cells with similar affinities (depicted in FIG. 6E), with cx5952 displaying higher maximal binding. cx6079, cx6080 and cx6081 contain two identical B7H3-targeting sdAbs, whereas cx5952, and cx3072 contain two distinct B7H3-targeting sdAb that bind different epitopes. The MAB-FV, cx5067, contains two identical B7H3-targeting FAB domains.

In experiment [2] the target is T2, B7H3 (CD276) (human, UniProt Q5ZPR3 29-534).
T2 construct: whole, on cells
T2 sequence (looked up): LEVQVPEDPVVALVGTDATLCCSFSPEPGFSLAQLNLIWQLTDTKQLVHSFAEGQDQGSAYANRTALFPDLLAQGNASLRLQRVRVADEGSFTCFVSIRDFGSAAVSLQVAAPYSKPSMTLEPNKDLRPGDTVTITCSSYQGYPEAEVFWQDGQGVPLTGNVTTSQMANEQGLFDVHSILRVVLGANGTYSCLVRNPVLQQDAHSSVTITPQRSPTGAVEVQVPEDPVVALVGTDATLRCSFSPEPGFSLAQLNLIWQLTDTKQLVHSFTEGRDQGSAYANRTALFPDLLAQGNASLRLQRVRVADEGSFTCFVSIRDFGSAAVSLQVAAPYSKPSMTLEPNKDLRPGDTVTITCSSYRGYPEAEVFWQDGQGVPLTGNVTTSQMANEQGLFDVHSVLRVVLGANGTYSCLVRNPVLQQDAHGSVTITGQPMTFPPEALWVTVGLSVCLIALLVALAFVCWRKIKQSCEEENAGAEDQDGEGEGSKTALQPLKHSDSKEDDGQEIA
Description: flow cytometry on A375 cells, anti-human Fc secondary. The protocol:
as §1, §2

Experiment [3] addresses T2, B7H3 (CD276). In words: flow cytometry on A375 cells. How it is done:
as §1
Binding was assessed as described above via flow cytometry using a fluorophore-conjugated anti-human Fc secondary antibody. cx3072 bound to A375 cells with high affinity (FIG. 6A) but not to isolated T-cells (FIG. 6B). […]
Background: A flow cytometer gives signals particle by particle.

T1 sequence (P07766 23-207): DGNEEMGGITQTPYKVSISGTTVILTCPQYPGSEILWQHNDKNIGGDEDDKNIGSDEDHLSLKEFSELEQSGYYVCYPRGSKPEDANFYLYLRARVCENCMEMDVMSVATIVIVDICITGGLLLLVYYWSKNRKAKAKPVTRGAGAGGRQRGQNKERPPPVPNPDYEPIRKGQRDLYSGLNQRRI

B1: cx5067 (bispecific antibody)
chain 1: EVQLVESGGGLVQPGGSLRLSCAASGFTFSSFGMHWVRQAPGKGLEWVAYISSDSSAIYYADTVKGRFTISRDNAKNSLYLQMNSLRDEDTAVYYCGRGRENIYYGSRLDYWGQGTTVTVSSASTKGPSVFPLAPSSKSTSGGTAALGCLVKDYFPEPVTVSWNSGALTSGVHTFPAVLQSSGLYSLSSVVTVPSSSLGTQTYICNVNHKPSNTKVDKKVEPKSCDKTHTCPPCPAPPVAGPSVFLFPPKPKDTLMISRTPEVTCVVVDVKHEDPEVKFNWYVDGVEVHNAKTKPREEEYNSTYRVVSVLTVLHQDWLNGKEYKCKVSNKALPAPIEKTISKAKGQPREPQVYTLPPSREEMTKNQVSLTCDVSGFYPSDIAVEWESDGQPENNYKTTPPVLDSDGSFFLYSKLTVDKSRWEQGDVFSCSVMHEALHNHYTQKSLSLSPGKGGGGSGGGGSGGGGSEVQLVESGGGLVQPGGSLRLSCAASGFTFSTYAMNWVRQAPGKGLEWVGRIRSKYNNYATYYADSVKGRFTISRDDSKNTLYLQMNSLRAEDTAVYYCVRHGNFGDSYVSWFAYWGQGTLVTVSS
chain 2: EVQLVESGGGLVQPGGSLRLSCAASGFTFSSFGMHWVRQAPGKGLEWVAYISSDSSAIYYADTVKGRFTISRDNAKNSLYLQMNSLRDEDTAVYYCGRGRENIYYGSRLDYWGQGTTVTVSSASTKGPSVFPLAPSSKSTSGGTAALGCLVKDYFPEPVTVSWNSGALTSGVHTFPAVLQSSGLYSLSSVVTVPSSSLGTQTYICNVNHKPSNTKVDKKVEPKSCDKTHTCPPCPAPPVAGPSVFLFPPKPKDTLMISRTPEVTCVVVDVKHEDPEVKFNWYVDGVEVHNAKTKPREEQYNSTYRVVSVLTVLHQDWLNGKEYKCKVSNKALPAPIEKTISKAKGQPREPQVYTLPPSREQMTKNQVKLTCLVKGFYPSDIAVEWESNGQPENNYKTTPPVLDSDGSFFLYSKLTVDKSRWQQGNVFSCSVMHEALHNHYTQKSLSLSPGKGGGGSGGGGSGGGGSQAVVTQEPSLTVSPGGTVTLTCGSSTGAVTTSNYANWVQQKPGKSPRGLIGGTNKRAPGVPARFSGSLLGGKAALTISGAQPEDEADYYCALWYSNHWVFGGGTKLTVL
light: DIQLTQSPSFLSASVGDRVTITCKASQNVDTNVAWYQQKPGKAPKALIYSASYRYSGVPSRFSGSGSGTDFTLTISSLQPEDFATYYCQQYNNYPFTFGQGTKLEIKRTVAAPSVFIFPPSDEQLKSGTASVVCLLNNFYPREAKVQWKVDNALQSGNSQESVTEQDSKDSTYSLSSTLTLSKADYEKHKVYACEVTHQGLSSPVTKSFNRGEC
notes: Three polypeptides; two identical B7H3 Fab domains; anti-CD3 Fv not disulfide-stabilized; also called MAB-FV; B7H3-targeted constrained CD3 engaging construct (Fab format)
As for B1, the binding result is reported as “no binding” in experiment [1] and “binds” with B7H3 (CD276) [2].

B2: cx6084 (bispecific antibody, human IgG1, kappa)
chain 1: B1 chain 1 with S496N, G510C, G515A, S543A, N552S, D572N, S590K, S591P
chain 2: B1 chain 2 with K510Q, S511A, P512F, G568C, T573E, V574I, L575K
light: B1 light
notes: Three polypeptides; B7H3 Fab on both Fc chains; anti-CD3 Fv disulfide-stabilized (VH G44C / VL G100C); also called MAB-dsFV; B7H3-targeted constrained CD3 engaging construct (Fab format)
As for B2, the values for the binding result (in experiment [1]; with B7H3 (CD276) [2]) were “no binding” and “binds”, respectively.

B3: cx6083 (bispecific antibody)
chain 1: B1 chain 1 with G510C
chain 2: B1 chain 2 with G568C
light: B1 light
notes: as for B2
Consider B3, for which the binding result in experiment [1] is reported as “no binding”; with B7H3 (CD276) [2], “binds”.

B4: cx6081 (bispecific antibody)
chain 1: EVQLVESGGGEVQPGGSLRLSCAASGFSFSSNVMMWVRQAPGKGLEWVSTIYSSGTGTFYAESVKGRFTISRDNAKNTLYLQMSSLRPEDTAVYYCATSGPVRGWGPRSQGTLVTVKPPGGGGDKTHTCPPCPAPPVAGPSVFLFPPKPKDTLMISRTPEVTCVVVDVKHEDPEVKFNWYVDGVEVHNAKTKPREEEYNSTYRVVSVLTVLHQDWLNGKEYKCKVSNKALPAPIEKTISKAKGQPREPQVYTLPPSREEMTKNQVSLTCDVSGFYPSDIAVEWESDGQPENNYKTTPPVLDSDGSFFLYSKLTVDKSRWEQGDVFSCSVMHEALHNHYTQKSLSLSPGKGGGGSGGGGSGGGGSEVQLVESGGGLVQPGGSLRLSCAASGFTFNTYAMNWVRQAPGKCLEWVARIRSKYNNYATYYADSVKGRFTISRDDAKNTLYLQMSSLRAEDTAVYYCVRHGNFGNSYVSWFAYWGQGTLVTVKP
chain 2: EVQLVESGGGEVQPGGSLRLSCAASGFSFSSNVMMWVRQAPGKGLEWVSTIYSSGTGTFYAESVKGRFTISRDNAKNTLYLQMSSLRPEDTAVYYCATSGPVRGWGPRSQGTLVTVKPPGGGGDKTHTCPPCPAPPVAGPSVFLFPPKPKDTLMISRTPEVTCVVVDVKHEDPEVKFNWYVDGVEVHNAKTKPREEQYNSTYRVVSVLTVLHQDWLNGKEYKCKVSNKALPAPIEKTISKAKGQPREPQVYTLPPSREQMTKNQVKLTCLVKGFYPSDIAVEWESNGQPENNYKTTPPVLDSDGSFFLYSKLTVDKSRWQQGNVFSCSVMHEALHNHYTQKSLSLSPGKGGGGSGGGGSGGGGSQAVVTQEPSLTVSPGGTVTLTCGSSTGAVTTSNYANWVQQKPGQAFRGLIGGTNKRAPGVPARFSGSLLGGKAALTISGAQPEDEADYYCALWYSNHWVFGCGTKLEIK
notes: Heterodimer of chain 1 and chain 2; anti-CD3 Fv disulfide-stabilized (VH G44C / VL G100C); two identical B7H3 sdAbs, both N-terminal to the Fc; also called cs6081; B7H3-targeting constrained CD3 engaging construct
Turning to B4, the binding result in experiment [1] is listed as “no binding”; in the experiment with B7H3 (CD276) [2] it was “binds”.

B5: cx6080 (bispecific antibody)
chain 1: B4 chain 1 with N394S, A413G, A441S, S450N, N470D, K488S, P489S
chain 2: B4 chain 2 with Q408K, A409S, F410P, E471T, I472V, K473L
notes: Heterodimer of chain 1 and chain 2; anti-CD3 Fv disulfide-stabilized (VH G44C / VL G100C); two identical B7H3 sdAbs, both N-terminal to the Fc; also called cs6080; B7H3-targeting constrained CD3 engaging construct
For B5, the figures for the binding result (in experiment [1]; in the experiment with B7H3 (CD276) [3]) were “no binding” and “binds”, respectively.

The record behind these values is patent US20230295336A1 (INHIBRX, published 2023).
